From publication PMC5028935, “De novo synthesis of fatty acids is regulated by FapR protein in Exiguobacterium antarcticum B7, a psychrotrophic bacterium isolated from Antarctica”

Molecular target: T1, FapR (Exiguobacterium antarcticum B7, UniProt A0ABT6QZ49 1-189)
T1 sequence: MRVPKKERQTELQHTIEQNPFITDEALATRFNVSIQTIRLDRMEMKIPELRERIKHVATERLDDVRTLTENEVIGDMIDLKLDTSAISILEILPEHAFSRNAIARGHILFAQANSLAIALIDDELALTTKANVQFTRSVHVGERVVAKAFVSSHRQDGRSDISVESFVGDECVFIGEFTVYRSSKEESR
Test: EMSA; 2, 2.8, 3.8 and 4.5 uM protein; no shift; 10 mM Tris-HCl (pH not given), 0.2 mM DTT, 0.2 mM EDTA, 0.25 mM KCl (so in the source), 1 h on ice; 7.5% native PAGE, SYBR Safe stain
Conditions: protein: recombinant; (pET-46 Ek/LIC vector adds a His tag); chain copies: 2

B1: fapR-plsX-fabD-fabG promoter, synthesized up to the palindrome (dsDNA)
DNA 1: TACTTGAAAGTGAACAACAAGGGATATATACTACTATTAGTACCAGGTAATAA
DNA 2: TTATTACCTGGTACTAATAGTAGTATATATCCCTTGTTGTTCACTTTCAAGTA
binding result: no binding
